The target of one assay is T1, wtNgR (Mus musculus, UniProt Q99PI8).
T1 construct: wtNgR encodes residues 1 to 473 of mNgR; vector secretion signal (pSecTag2) (N); 6xHis (C); expressed in transfected cells; host or cells: COS-7
T1 sequence (Q99PI8 27-473): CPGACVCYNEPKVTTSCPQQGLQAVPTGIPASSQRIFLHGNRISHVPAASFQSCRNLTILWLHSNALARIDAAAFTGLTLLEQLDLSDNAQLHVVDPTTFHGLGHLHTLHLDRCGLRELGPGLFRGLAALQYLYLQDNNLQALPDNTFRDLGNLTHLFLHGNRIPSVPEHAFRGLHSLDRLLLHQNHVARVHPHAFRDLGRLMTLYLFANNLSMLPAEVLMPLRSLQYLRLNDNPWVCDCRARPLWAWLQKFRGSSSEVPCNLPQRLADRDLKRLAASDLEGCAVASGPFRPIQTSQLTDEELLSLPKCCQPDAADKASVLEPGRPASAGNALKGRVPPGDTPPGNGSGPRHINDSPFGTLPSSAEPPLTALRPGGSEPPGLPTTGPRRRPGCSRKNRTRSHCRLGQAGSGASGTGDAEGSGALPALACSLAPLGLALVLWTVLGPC
The assay is described as follows: AP-NgR binding to COS-7 cells transfected with wtNgR. On the procedure:
(§1) A vector encoding AP-hNogo-A (1055-1120) was constructed as described in Fournier et al., supra). The vector encoding AP-NgR was made by ligating the mNgR coding sequence from residues 27-451 in frame with the signal sequence-6× His—placental alkaline phosphatase (AP) sequence of the vector known as pAP-6 (Nakamura et al., Neuron 2: 1093-1100, 1988).
(§2) NgR was tested for the ability to self-associate. For this study, mNgR [hereinafter, wtNgR or WT] and mNgR deletion mutants (see FIG. 18A) were transfected into COS-7 cells. Forty-eight hours after the transfection, the transfected COS-7 cells were washed with HBH. Cells were then incubated for 2 hours at 23° C. with a conditioned medium containing […] diluted in HBH. AP-fusion protein was detected as previously described for AP-Sema3A (Takahashi et al., Nature Neurosci. 1:487-493, 1998). Similar to the AP-Nogo binding profile, AP-NgR bound to wtNgR and NgRΔCT (FIG. 23). Nogo treatment had little, if any, effect on the NgR-NgR interaction (data not shown). […] The same NgR domains are required for GST-hNogo-A (1055-1120) binding and NgR oligomerization

In the next assay the target is T2, NgRΔCT (Mus musculus, UniProt Q99PI8).
T2 construct: encodes residues 26 to 305 and 443 to473 of mNgR; vector secretion signal (pSecTag2) (N); 6xHis (C); expressed in transfected cells; host or cells: COS-7
T2 sequence (Q99PI8 with tags, fused parts or gaps): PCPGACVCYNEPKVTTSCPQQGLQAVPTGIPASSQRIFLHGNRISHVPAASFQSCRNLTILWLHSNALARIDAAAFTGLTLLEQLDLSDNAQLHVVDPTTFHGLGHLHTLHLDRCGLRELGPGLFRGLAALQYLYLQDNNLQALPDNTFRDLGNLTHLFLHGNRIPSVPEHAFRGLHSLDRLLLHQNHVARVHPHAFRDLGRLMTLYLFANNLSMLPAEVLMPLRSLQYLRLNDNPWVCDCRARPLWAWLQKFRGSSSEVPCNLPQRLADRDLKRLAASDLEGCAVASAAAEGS
The assay is described as follows: AP-NgR binding to COS-7 cells transfected with NgRΔCT. On the procedure:
as §1, §2

In the next assay the test system is NgR deletion mutants. Briefly: AP-NgR binding to COS-7 cells transfected with other NgR deletion mutants. Also noted: species or system mouse. On the procedure: as §1, §2

B1: AP-NgR: mNgR residues 27-451 fused to signal sequence-6x His-placental alkaline phosphatase (protein)
chain: HHHHHHIIPVEEENPDFWNREAAEALGAAKKLQPAQTAAKNLIIFLGDGMGVSTVTAARILKGQKKDKLGPEIPLAMDRFPYVALSKTYNVDKHVPDSGATATAYLCGVKGNFQTIGLSAAARFNQCNTTRGNEVISVMNRAKKAGKSVGVVTTTRVQHASPAGTYAHTVNRNWYSDADVPASARQEGCQDIATQLISNMDIDVILGGGRKYMFRMGTPDPEYPDDYSQGGTRLDGKNLVQEWLAKRQGARYVWNRTELMQASLDPSVTHLMGLFEPGDMKYEIHRDSTLDPSLMEMTEAALRLLSRNPRGFFLFVEGGRIDHGHHESRAYRALTETIMFDDAIERAGQLTSEEDTLSLVTADHSHVFSFGGYPLRGSSIFGLAPGKARDRKAYTVLLYGNGPGYVLKDGARPDVTESESGSPEYRQQSAVPLDEETHAGEDVAVFARGPQAHLVHGVQEQTFIAHVMAFAACLEPYTACDLAPPAGTTDAAHPGCPGACVCYNEPKVTTSCPQQGLQAVPTGIPASSQRIFLHGNRISHVPAASFQSCRNLTILWLHSNALARIDAAAFTGLTLLEQLDLSDNAQLHVVDPTTFHGLGHLHTLHLDRCGLRELGPGLFRGLAALQYLYLQDNNLQALPDNTFRDLGNLTHLFLHGNRIPSVPEHAFRGLHSLDRLLLHQNHVARVHPHAFRDLGRLMTLYLFANNLSMLPAEVLMPLRSLQYLRLNDNPWVCDCRARPLWAWLQKFRGSSSEVPCNLPQRLADRDLKRLAASDLEGCAVASGPFRPIQTSQLTDEELLSLPKCCQPDAADKASVLEPGRPASAGNALKGRVPPGDTPPGNGSGPRHINDSPFGTLPSSAEPPLTALRPGGSEPPGLPTTGPRRRPGCSRKNRTRSHCRLGQAGSGASGTGDAEGSGALP
Regarding B1, the entries for the “binding (in words)” value in the assay with wtNgR, with NgRΔCT and in the assay on NgR deletion mutants were “bound”, “bound” and “did not bind”, respectively.

The values above are taken from patent US8394929B2, “Nogo receptor-mediated blockade of axonal growth” (Yale University, priority 2000, dated 2013).
